Nine proteins from publication PMC4509486, “Inside-out Ca^2+ signalling prompted by STIM1 conformational switch” (Nature Communications, 2015) can be followed below.

Positions count from the first letter of the chain named. In names and notes the source's numbering stands.

Data set [1] concerns the molecule itself. Nature of the data set: SEC-MALS; Superdex 200 10/300 GL; 500 μl of 10–100 μM protein; 20 mM Tris-HCl pH 7.3, 150 mM NaCl, 2 mM dithiothreitol, 0.6% N-lauroylsarcosine; 0.3 ml/min. A general note: In gel filtration, larger molecules generally elute earlier.
Data set [2] concerns the molecule itself. Nature of the data set: cross-linking; copper-phenanthroline (1 mM CuSO4/3 mM 1,10-phenanthroline) disulfide cross-linking of purified protein (1 mg/ml) in 20 mM HEPES pH 7.4, 150 mM NaCl, 1 mM TCEP, on ice 15 min; non-reducing SDS-PAGE; efficiency = dimer/(monomer + dimer).
Data set [3] deals with the molecule itself. Nature of the data set: FRET or BRET; inter-subunit FRET between FITC- and TMR-labelled monocysteine TM-CC1 in PBS pH 7.3, 1% OG, 1 mM TCEP; excitation 475 nm. (In BRET a luciferase serves as donor, and the signal depends on an acceptor being close.)
Data set [4] concerns the molecule itself. Nature of the data set: SEC + native gel or EMSA; in vitro, with or without Ca^2+; detergents needed to keep the proteins soluble. Background: Mobility shift assays separate free from complexed probe on a gel.

B1: GB1-TM-CC1 (STIM1 residues 209–310), wild type (domain or fragment, UniProt Q13586 209-310, looked up)
chain: NHLKDFMLVVSIVIGVGGCWFAYIQNRYSKEHMKKMMKDLEGLHRAEQSLHDLQERLHKAQEEHRTVEVEKVHLEKKLRDEINLAKQEAQRLKELREGTENE
notes: STIM1 residues 209-310 (transmembrane domain and CC1); also called STIM1_(209–310); WT; source: E. coli BL21 (DE3), purified (Ni-NTA, gel filtration); not shown: GB1, N-terminal, kept
The stoichiometry N is the number of molecules, sites or subunits per partner or assembly. With B1, the “stoichiometry N” value in data set [1] stood at 2.

B2: GB1-TM-CC1 monocysteine variant I220C on the C227W background (domain or fragment, UniProt Q13586 209-310, looked up)
chain: B1 chain with I12C, C19W
notes: STIM1 residues 209-310; also called I220C (C227W); source: E. coli BL21 (DE3), purified; not shown: GB1, N-terminal, kept
In the case of B2, in data set [2], the binding result is “binds”.

B3: GB1-TM-CC1 (STIM1 residues 209–310) C227W (domain or fragment, UniProt Q13586 209-310, looked up)
chain: B1 chain with C19W
notes: STIM1 residues 209-310; also called TM-CC1-C227W; source: E. coli BL21 (DE3), purified (Ni-NTA, gel filtration); not shown: GB1, N-terminal, kept
Regarding B3, the “stoichiometry N” value in data set [1] was 2.

B4: GB1-TM-CC1 monocysteine variant I220C on the C227S background (domain or fragment, UniProt Q13586 209-310, looked up)
chain: B1 chain with I12C, C19S
notes: STIM1 residues 209-310; also called I220C (C227S); source: E. coli BL21 (DE3), purified; not shown: GB1, N-terminal, kept
Regarding B4, the binding result in data set [2] is given as “binds”.

B5: TM-CC1 monocysteine variant N234C on the C227W background, labelled with FITC or TMR (domain or fragment, UniProt Q13586 209-310, looked up)
chain: B1 chain with C19W, N26C
modifications: FITC-maleimide or TMR-maleimide on the single cysteine (N234C)
notes: STIM1 residues 209-310 (TM-CC1); also called N234C (C227W TM-CC1); source: E. coli BL21 (DE3), purified, dye-labelled
With B5, the binding result in data set [3] is “binds”.

B6: GB1-TM-CC1 monocysteine variant F229C on the C227W background (domain or fragment, UniProt Q13586 209-310, looked up)
chain: B1 chain with C19W, F21C
notes: STIM1 residues 209-310; also called F229C (C227W); source: E. coli BL21 (DE3), purified; not shown: GB1, N-terminal, kept
Turning to B6, the binding result in data set [2] is on record as “binds”.

B7: TM-CC1 monocysteine variant F214C on the C227W background, labelled with FITC or TMR (domain or fragment, UniProt Q13586 209-310, looked up)
chain: B1 chain with F6C, C19W
modifications: FITC-maleimide or TMR-maleimide on the single cysteine (F214C)
notes: STIM1 residues 209-310 (TM-CC1); also called F214C (C227W TM-CC1); source: E. coli BL21 (DE3), purified, dye-labelled
Consider B7, for which the binding result in data set [3] is “binds”.

B8: GB1-TM-CC1 monocysteine variant F229C on the C227S background (domain or fragment, UniProt Q13586 209-310, looked up)
chain: B1 chain with C19S, F21C
notes: STIM1 residues 209-310; also called F229C (C227S); source: E. coli BL21 (DE3), purified; not shown: GB1, N-terminal, kept
Turning to B8, the binding result in data set [2] is recorded as “binds”.

B9: STIM1 1–342 (characterized in vitro) (domain or fragment, UniProt Q13586 23-342, looked up)
chain: LSHSHSEKATGTSSGANSEESTAAEFCRIDKPLCHSEDEKLSFEAVRNIHKLMDDDANGDVDVEESDEFLREDLNYHDPTVKHSTFHGEDKLISVEDLWKAWKSSEVYNWTVDEVVQWLITYVELPQYEETFRKLQLSGHAMPRLAVTNTTMTGTVLKMTDRSHRQKLQLKALDTVLFGPPLLTRHNHLKDFMLVVSIVIGVGGCWFAYIQNRYSKEHMKKMMKDLEGLHRAEQSLHDLQERLHKAQEEHRTVEVEKVHLEKKLRDEINLAKQEAQRLKELREGTENERSRQKYAEEELEQVREALRKAEKELESHSSWY
notes: signal peptide in the construct; it may be the CFP fusion m18
B9: the “stoichiometry N” value in data set [4] was found to be 2.
